The Human Domainome abundance scans (Beltran et al. 2025)
± gives the uncertainty stated by the source.

B1: Triacylglycerol hydrolase DDHD2, residues 389 to 447; numbered along this chain, O94830 (parent)
chain: TLEEDLKKLQLSEFFDIFEKEKVDKEALALCTDRDLQEIGIPLGPRKKILNYFSTRKNS

Variants of: B1
Assay: abundance fitness (aPCA) (normalised: wild type 0, dead -1); higher = more abundant; growth selection in yeast, the domain comes from the species named
Conditions: Homo sapiens

Variant | abundance fitness
TLEEDLKKLQLSEFFDIFEKEKVDKEALALCTDRDLQEIGIPLGPRKKILNYDSTRKNS [F53D] | -0.03 ± 0.095
LLEEDLKKLQLSEFFDIFEKEKVDKEALALCTDRDLQEIGIPLGPRKKILNYFSTRKNS [T1L] | -0.488 ± 0.18
SLEEDLKKLQLSEFFDIFEKEKVDKEALALCTDRDLQEIGIPLGPRKKILNYFSTRKNS [T1S] | -0.232 ± 0.12
VLEEDLKKLQLSEFFDIFEKEKVDKEALALCTDRDLQEIGIPLGPRKKILNYFSTRKNS [T1V] | -0.44 ± 0.15
TLEEDLKKLQLSEFFDIFEKEKVDKEALALSTDRDLQEIGIPLGPRKKILNYFSTRKNS [C31S] | 0.165 ± 0.063
TLEEDLKKLQLSEFFDIFEKEKVDKEALALATDRDLQEIGIPLGPRKKILNYFSTRKNS [C31A] | 0.343 ± 0.065
TLEEDLKKLQLSEFFDIFEKEKVDKEALALGTDRDLQEIGIPLGPRKKILNYFSTRKNS [C31G] | -0.294 ± 0.059
TLEEDLKKLQLSEFFDIFEKEKVDKEALALLTDRDLQEIGIPLGPRKKILNYFSTRKNS [C31L] | 0.526 ± 0.065
TLEEDLKKLQLSEFFDIFEKEKVDKEALALCTDRDLQIIGIPLGPRKKILNYFSTRKNS [E38I] | -0.294 ± 0.11
TLEEDLKKLQLSEFFDIFEKEKVDKEALALCTDRDLQPIGIPLGPRKKILNYFSTRKNS [E38P] | -0.888 ± 0.15
TLEEDLKKLQLSEFFDIFEKEKWDKEALALCTDRDLQEIGIPLGPRKKILNYFSTRKNS [V23W] | 0.593 ± 0.071
TLEEDLKKLQLSEFFDIFEKEKVDKEALALCTDRDLQEIGIPLGPRKKIHNYFSTRKNS [L50H] | -0.087 ± 0.14
TLEEDLKKLQLSEFFDIFEKEKVDKEALALCTDRDLQEIGIPLGPRKKIMNYFSTRKNS [L50M] | -0.209 ± 0.1
TLEEDAKKLQLSEFFDIFEKEKVDKEALALCTDRDLQEIGIPLGPRKKILNYFSTRKNS [L6A] | -1.1 ± 0.11
TLEEDLKKLQLSEFFDIFEKEKVDKEALILCTDRDLQEIGIPLGPRKKILNYFSTRKNS [A29I] | 0.012 ± 0.11
TLEEDLKKLQLREFFDIFEKEKVDKEALALCTDRDLQEIGIPLGPRKKILNYFSTRKNS [S12R] | -0.274 ± 0.06
TLEEDLKKLQLSEFFDIFEKEKVDKEALALCTDRDHQEIGIPLGPRKKILNYFSTRKNS [L36H] | -0.352 ± 0.17
TLEEDLKKLQLSEFFDIFEKEKVDKEALALCTDRDMQEIGIPLGPRKKILNYFSTRKNS [L36M] | -0.164 ± 0.08
TLEEDLKKLQLSEFFDIFEKEKVDKEALALCTDRDRQEIGIPLGPRKKILNYFSTRKNS [L36R] | -0.434 ± 0.072
TLEEDLKKLQLSEFFDIFEKEKVDKEALALCTDRDDQEIGIPLGPRKKILNYFSTRKNS [L36D] | -0.565 ± 0.13
TLEEDLKKLQLSEFFDIFEKEKVDKEALALCTDRDLQEIGIPRGPRKKILNYFSTRKNS [L43R] | 0.512 ± 0.053
TLEEDLKKLQLSEFFDIFEKEKVDKEALALCTDRDLQEIGIPTGPRKKILNYFSTRKNS [L43T] | 0.543 ± 0.054
TYEEDLKKLQLSEFFDIFEKEKVDKEALALCTDRDLQEIGIPLGPRKKILNYFSTRKNS [L2Y] | -0.695 ± 0.13

Variant | abundance fitness
TAEEDLKKLQLSEFFDIFEKEKVDKEALALCTDRDLQEIGIPLGPRKKILNYFSTRKNS [L2A] | -0.609 ± 0.07
TLETDLKKLQLSEFFDIFEKEKVDKEALALCTDRDLQEIGIPLGPRKKILNYFSTRKNS [E4T] | -0.589 ± 0.081
TLEFDLKKLQLSEFFDIFEKEKVDKEALALCTDRDLQEIGIPLGPRKKILNYFSTRKNS [E4F] | -0.264 ± 0.1
TLEGDLKKLQLSEFFDIFEKEKVDKEALALCTDRDLQEIGIPLGPRKKILNYFSTRKNS [E4G] | -0.436 ± 0.074
TLEEDLKKLQLSEFFDIFEKETVDKEALALCTDRDLQEIGIPLGPRKKILNYFSTRKNS [K22T] | -0.16 ± 0.094
TLEEDLKKLQLSEFFDIFEKEAVDKEALALCTDRDLQEIGIPLGPRKKILNYFSTRKNS [K22A] | -0.039 ± 0.072
TLEEDLCKLQLSEFFDIFEKEKVDKEALALCTDRDLQEIGIPLGPRKKILNYFSTRKNS [K7C] | -0.294 ± 0.2
TLEEDLKKLQLSEAFDIFEKEKVDKEALALCTDRDLQEIGIPLGPRKKILNYFSTRKNS [F14A] | -0.098 ± 0.086
TLEEDLKKLQLSEFFYIFEKEKVDKEALALCTDRDLQEIGIPLGPRKKILNYFSTRKNS [D16Y] | -0.435 ± 0.2
TLEEDLKKLQLSEFFCIFEKEKVDKEALALCTDRDLQEIGIPLGPRKKILNYFSTRKNS [D16C] | -0.084 ± 0.085
TLEEDLKKLQLSEFFDIFEKEKVDKEALALCTDRDLQEIGIPLGPRKKILSYFSTRKNS [N51S] | 0.14 ± 0.065
TLEEILKKLQLSEFFDIFEKEKVDKEALALCTDRDLQEIGIPLGPRKKILNYFSTRKNS [D5I] | -0.144 ± 0.11
TLEEDLKKLQNSEFFDIFEKEKVDKEALALCTDRDLQEIGIPLGPRKKILNYFSTRKNS [L11N] | -1.02 ± 0.21
TLEEDLKKLQISEFFDIFEKEKVDKEALALCTDRDLQEIGIPLGPRKKILNYFSTRKNS [L11I] | -0.257 ± 0.14
TLEEDLKKLQVSEFFDIFEKEKVDKEALALCTDRDLQEIGIPLGPRKKILNYFSTRKNS [L11V] | -0.401 ± 0.053
TLEEDLKKLQLSEFFDIFEKEKVDKEALALCTDRDLQEIGIPLGPRFKILNYFSTRKNS [K47F] | -0.772 ± 0.16
TLEEDLKKLQLSEFFDIFEKEKVDKEALALCTDRDLQEIGIPLGPRPKILNYFSTRKNS [K47P] | -0.627 ± 0.12
TLEEDLKKLQLSEFFDIFEKEKVDKEALALCTDRDLQEIGIPLGPRGKILNYFSTRKNS [K47G] | 0.101 ± 0.061
TLEEDLKKLQLSEFFDIFEKEKVDKEALALCTDRDLQEIGIPLGPRKKWLNYFSTRKNS [I49W] | -0.477 ± 0.11
TLEEDLKKLQLSEFFDIFEKEKVDKEALALCTDRDLQEIGIPLGPRKKELNYFSTRKNS [I49E] | -0.052 ± 0.093
TLEEDLKKLQLSEFFDIFEKEKVDKEALALCTDRDLQEIGIPLGPRKKALNYFSTRKNS [I49A] | -0.244 ± 0.093
TLEEDLKKLQLSEFFDIFEKEKVDKEALALCTDRDLQEIGIPLGPRKKHLNYFSTRKNS [I49H] | -0.07 ± 0.12
